T1: Recombinant human CXCL16 (rhCXCL16) protein (Homo sapiens, UniProt Q9H2A7)
T1 sequence (Q9H2A7 30-118): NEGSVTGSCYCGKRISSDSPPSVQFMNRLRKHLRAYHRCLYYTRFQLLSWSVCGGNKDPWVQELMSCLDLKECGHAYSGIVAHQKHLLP

T2: Recombinant human CXCL16 (rhCXCL16) protein (human, UniProt Q9H2A7 30-118, limits assumed)
T2 construct: Bought recombinant protein (976-CX, R&D systems); also called CXCL16 antigen; 976-CX (R&D systems)
T2 sequence: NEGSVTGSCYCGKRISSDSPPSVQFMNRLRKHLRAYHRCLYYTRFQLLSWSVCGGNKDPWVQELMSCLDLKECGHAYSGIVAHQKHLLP

T3: Recombinant mouse CXCL16 antigen (mouse, UniProt Q8BSU2 27-114, limits assumed)
T3 construct: Bought recombinant protein (503-CX, R&D systems); also called 503-CX (R&D systems)
T3 sequence: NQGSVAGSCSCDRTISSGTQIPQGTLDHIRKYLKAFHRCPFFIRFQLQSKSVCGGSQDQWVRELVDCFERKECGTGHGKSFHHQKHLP


Legend:
[1] = system: 4T1, a breast cancer cell line; settings: 4T1 in C3H mice; FIG. 7
Method: 2×10^6 pieces of 4T1, a breast cancer cell line, were injected into the back of C3H mice, and anticancer drugs were administered to each experimental group from the 5th day when the tumor was formed.

[2] = system: anaplastic thyroid cancer cell line FRO; test: thyroid cancer mouse model, combination with lenvatinib; assay type: in vivo, nu/nu mice
Source text: We measured tumor size with a caliper and calculated tumor volume using the following equation: volume=½× a×b2, where a=long tumor diameter and b=short tumor diameter.

[3] = biological target: T1, Recombinant human CXCL16 (rhCXCL16) protein; test: bio-light interferometry (ForteBio) binding analysis; settings: antibody captured on biosensor, rhCXCL16 100 nM, 25° C.; ND = signal was not detectable
Method: (§1) The binding characteristics of 25 CXCL16 antibodies were analyzed using the bio-light interferometry (ForteBio). All antibodies were diluted in freshly prepared running buffer. Antibodies were immobilized onto the surface of a series of biosensors using the capture methods at 0.3 μg/mL. Recombinant human CXCL16 (rhCXCL16) protein (100 nM) was passed over the surface to generate a binding response for 10 minutes. Binding data for the antibody and antigen interactions were collected at 25° C. on the biosensors. Then, the running buffer was passed for 10 minutes to dissociate them. The association constant (ka) and the dissociation constant (ka) were observed, and the equilibrium binding constant (KD) was calculated. […] R2: The value indicating how well the fit and experimental data correlate; X^2: The measure of error between the experimental data and fitted line.

[4] = biological target: T2, Recombinant human CXCL16 (rhCXCL16) …; test: BLI (ForteBio), antibody captured on biosensor, rhCXCL16 in solution, 25 C
Method: as §1, with “(kₐ)” for “(ka)”, “X²:” for “X^2:”

[5] = biological target: T2, Recombinant human CXCL16 (rhCXCL16) …; test: as above; remark: listed apart in the source
[6] = biological target: T3, Recombinant mouse CXCL16 antigen; test: ELISA, recombinant mouse CXCL16 immobilized on the plate, HRP-labeled anti-human IgG detection, OD 450 nm
Method: To evaluate the cross-reactivity with mouse CXCL16 antigen, the same ELISA experiment was performed with recombinant mouse CXCL16 antigen (503-CX, R&D systems). The mouse CXCL16 antigen was immobilized onto 96-well plates by incubation for 2 hours at room temperature. Non-specific binding sites were blocked by incubating with 1% BSA in PBS overnight at 4° C. After coating, the plates were washed with PBS. Humanized CXCL16 antibodies at various concentration (0.00 1˜10 nM) were incubated with the immobilized antigen for 2 hours at room temperature. After binding, the plates were washed, incubated with HRP-labeled anti-human IgG antibody (W4031, Promega, USA) for 0.5 hours, and developed using the substrate solution (DY008B, R&D systems). The binding affinity of humanized antibodies was similar to that of IgG antibody.

[7] = biological target: T2, Recombinant human CXCL16 (rhCXCL16) …; test: BLI (ForteBio), antibody captured on biosensor, rhCXCL16 in solution
Method: as §1, with “(kₐ)” for “(ka)”, “X²:” for “X^2:”

Molecule | Kd [4] | koff [4] | Res@3.7 nM [5] | binding result [6] | kon [4] | further results
CC(=O)O[C@H]1C(=O)[C@@]2(C)[C@H]([C@H](OC(=O)c3ccccc3)[C@]3(O)C[C@H](OC(=O)[C@H](O)[C@@H](NC(=O)c4ccccc4)c4ccccc4)C(C)=C1C3(C)C)[C@]1(OC(C)=O)CO[C@@H]1C[C@@H]2O [Taxol, paclitaxel] | – | – | – | – | – | therapeutic effect (tumor growth) [1]: did not have a clear therapeutic effect
COc1cc2nccc(Oc3ccc(NC(=O)NC4CC4)c(Cl)c3)c2cc1C(N)=O [lenvatinib] | – | – | – | – | – | therapeutic effect (tumor growth) ([2]; after phase 1, rate the same as that of the control group): therapeutic effect of lenvatinib was lowered; therapeutic effect (tumor growth) ([2]; phase 1 (up to day 22), lenvatinib orally 30 mg/kg/day five times a week): therapeutic effect of lenvatinib was maintained
HC0LC0: chimeric antibody that binds to human CXCL16; rat variable regions (CDRs SEQ ID NOs 12-17), heavy SEQ ID NO: 32, light SEQ ID NO: 34 (antibody) heavy: ACCMGWTLVFLFLLSVTAGVHSAVQLVESGGGLVQPKESLKISCAASGFTFSNAVMNWVRQAPGKGLEWVARIRTKPNNYATFYADSVKGRFTFSRDDSKSMVYLQMDNLKTEDTAMYYCTAWTTEGIYWGQGTLVTVSSAETTAPSVYPLAPGTALKSNSMVTLGCLVKGYFPEPVTVTWNSGALSSGVHTFPAVLQSGLYTLTSSVTVPSSTWSSQAVTCNVAHPASSTKVDKKIVPRECNPCGCTGSEVSSVFIFPPKTKDVLTITLTPKVTCVVVDISQNDPEVRFSWFIDDVEVHTAQTHAPEKQSNSTLRSVSELPIVHRDWLNGKTFKCKVNSGAFPAPIEKSISKPEGTPRGPQVYTMAPPKEEMTQSQVSITCMVKGFYPPDIYTEWKMNGQPQENYKNTPPTMDTDGSYFLYSKLNVKKETWQQGNTFTCSVLHEGLHNHHTEKSLSHSPGK light: ACCMVSSAQFLGLLLLCFQGTRCDIVMTQSPSSLAVSAGETVTINCKSSQSLLYSGNQKNYLAWYQQKPGQSPKLLIYWASTRQSGVPDRFIGSGSGTDFTLTISSVQAEDLAIYYCQQYYDTPWTFGGGTKLELKRADAAPTVSIFPPSTEQLATGGASVVCLMNNFYPRDISVKWKIDGTERRDGVLDSVTDQDSKDSTYSMSSTLSLTKADYESHNLYTCEVVHKTSSSPVVKSFNRNEC | – | – | – | – | – | kd [3]: <1e-07 s⁻¹
Chimeric antibody HC0LC0 (antibody, V domains shown, also called CLS-A1HC0LC0; variant antibody) VH: AVQLVESGGGLVQPKESLKISCAASGFTFSNAVMNWVRQAPGKGLEWVARIRTKPNNYATFYADSVKGRFTFSRDDSKSMVYLQMDNLKTEDTAMYYCTAWTTEGIYWGQGTLVTVSS VL: DIVMTQSPSSLAVSAGETVTINCKSSQSLLYSGNQKNYLAWYQQKPGQSPKLLIYWASTRQSGVPDRFIGSGSGTDFTLTISSVQAEDLAIYYCQQYYDTPWTFGGGTKLELKR | < 0.001 nM | < 1e-07 s⁻¹ | 0.13 | no binding (tested: 1500 ng/mL) | – | –
HC5LC1 (antibody, human IgG1, kappa, V domains shown, Humanized; human IgG1 / kappa constant domains; also called HCSLC1; humanized CXCL16 antibody HC5LC1) VH: EVQLVESGGGLVQPGGSLKLSCAASGFTFSNAVMNWVRQASGKGLEWVARIRTKPNNYATFYADSVKGRFTFSRDDSKNTAYLQMNSLKTEDTAMYYCTAWTTEGIYWGQGTLVTVSS VL: DIVMTQSPDSLAVSAGETVTINCKSSQSLLYSGNQKNYLAWYQQKPGQSPKLLIYWASTRQSGVPDRFSGSGSGTDFTLTISSVQAEDVAVYYCQQYYDTPWTFGGGTKVEIKR | 3.26 nM | 5.97e-05 s⁻¹ | 0.08 | – | 18300 M⁻¹ s⁻¹ | –
HC2LC4 (antibody, human IgG1, kappa, V domains shown, Humanized variant; human IgG1 / kappa constant domains) VH: AVQLVESGGGLVQPGGSLKISCAASGFTFSNAVMNWVRQASGKGLEWVGRIRTKPNNYATFYADSVKGRFTISRDDSKNTAYLQMNSLKTEDTAMYYCTAWTTEGIYWGQGTLVTVSS VL: DIQMTQSPSSLSASVGDRVTITCKSSQSLLYSGNQKNYLAWYQQKPGQSPKLLIYWASTRQSGVPSRFSGSGSGTDFTLTISSLQPEDLAIYYCQQYYDTPWTFGGGTKLELKR | – | – | – | – | – | binding result [7]: no binding (tested: 100 nM rhCXCL16)
HC5LC5 (antibody, human IgG1, kappa, V domains shown, Humanized; human IgG1 / kappa constant domains; also called HCSLCS; humanized CXCL16 antibody HC5LC5) VH: EVQLVESGGGLVQPGGSLKLSCAASGFTFSNAVMNWVRQASGKGLEWVARIRTKPNNYATFYADSVKGRFTFSRDDSKNTAYLQMNSLKTEDTAMYYCTAWTTEGIYWGQGTLVTVSS VL: DIVMTQSPSSLAVSAGERATINCKSSQSLLYSGNQKNYLAWYQQKPGQSPKLLIYWASTRQSGVPDRFIGSGSGTDFTLTISSLQAEDVAIYYCQQYYDTPWTFGGGTKLELKR | < 0.001 nM | < 1e-07 s⁻¹ | 0.231 | no binding (tested: 1500 ng/mL) | 18200 M⁻¹ s⁻¹ | –
HC5LC2 (antibody, human IgG1, kappa, V domains shown, Humanized; human IgG1 / kappa constant domains; also called HCSLC2; humanized CXCL16 antibody HC5LC2) VH: EVQLVESGGGLVQPGGSLKLSCAASGFTFSNAVMNWVRQASGKGLEWVARIRTKPNNYATFYADSVKGRFTFSRDDSKNTAYLQMNSLKTEDTAMYYCTAWTTEGIYWGQGTLVTVSS VL: DIVMTQSPSSLAVSLGETATINCKSSQSLLYSGNQKNYLAWYQQKPGQPPKLLIYWASTRQSGVPDRFTGSGAGTDFTLTISSVQAEDLAIYYCQQYYDTPWTFGGGTKVEIKR | 2.5 nM | 6.07e-05 s⁻¹ | 0.152 | no binding (tested: 1500 ng/mL) | 24300 M⁻¹ s⁻¹ | –
HC5LC3 (antibody, human IgG1, kappa, V domains shown, Humanized; human IgG1 / kappa constant domains; also called HCSLC3; humanized CXCL16 antibody HC5LC3) VH: EVQLVESGGGLVQPGGSLKLSCAASGFTFSNAVMNWVRQASGKGLEWVARIRTKPNNYATFYADSVKGRFTFSRDDSKNTAYLQMNSLKTEDTAMYYCTAWTTEGIYWGQGTLVTVSS VL: DIQMTQSPSSLSASVGDRVTITCKSSQSLLYSGNQKNYLAWYQQKPGQSPKLLIYWASTRQSGVPDRFSGSGSGTDFTLTISSLQAEDFATYYCQQYYDTPWTFGGGTKVEIKR | 1.44 nM | 0.000635 s⁻¹ | 0.078 | – | – | –
HC4LC1 (antibody, human IgG1, kappa, V domains shown, Humanized; human IgG1 / kappa constant domains; also called humanized CXCL16 antibody HC4LC1) VH: EVQLVESGGGLVKPGGSLRLSCAASGFTFSNAVMNWVRQAPGKGLEWVARIRTKPNNYATFYADSVKGRFTFSRDDSKNTLYLQMNSLKTEDTAVYYCTAWTTEGIYWGQGTTVTVSS VL: DIVMTQSPDSLAVSAGETVTINCKSSQSLLYSGNQKNYLAWYQQKPGQSPKLLIYWASTRQSGVPDRFSGSGSGTDFTLTISSVQAEDVAVYYCQQYYDTPWTFGGGTKVEIKR | 1.09 nM | 1.9e-05 s⁻¹ | 0.113 | – | 17400 M⁻¹ s⁻¹ | –

Source: patent publication US20240327509A1, “HUMAN CXCLI6 ANTIBODIES AND THE USE THEREOF” (CELLUS,INC., priority 2021, published 2024)
